Assay: soluble on expression in E. coli; label from the status in PepcDB or PDB records

Sequence | soluble on expression in E. coli
SARLADYFIVVGYDHEKPGSGEGLGKIIQRFPQKDWDDTPFPQGIELFCQPGGWQLSRERKQPTFFVVVLTDIDSDRHYCSCLTFYEAEINLQGTKKEEIEGEAKVSGLIQPAEVFAPKSLVLVSRLYYPEIFRACLGLIYTVYVDSLNVSLESLIANLCACLVPAAGGSQKLFSLGAGDRQLIQTPLHDSLPITGTSVALLFQQLGTVAHACNLSTLGGRGGQLTRSGDRDHPG | soluble
SASHIVGYPRMGPKRELKFALESFWDGKSSAEDLEKVATDLRASIWKQMADAGIKYIPSNTFSYYDQVLDTTAMLGAVPGRYSWTGGEIGFSTYFSMARGNATVPAMEMTKWFDTNYHFIVPELGPNTKFSYSSHKAVNEYKEAKALGVDTVPVLVGPVSYLLLSKPAKGVEKSFALLSLLSSILPVYKEVIAELKAAGATWIQFDEPTLVLDLDSHQLAAFSAAYTELESALSGLNVLIETYFADIPAESYKTLTSLNSVTAYGFDLIRGSKTLDLVKSAGFPSGKYLFAGVVDGRNIWADDLAASLTTLESLEAIVGKDKLVVSTSCSLMHTAVDLVNETKLDSEIKSWLAFAAQKVVEVNALAKALAGQKDEAYFAANTAAQASRRSSPRVTNEEVQKAAAALRGSDHRRATNVSARLDAQQKKLNLPVLPTTTIGSFPQTVELRRVRREYKAKKISEDEYVSAIKEEISKVVKIQEELDIDVLVHGEPERNDMVEYFGEQLSGFAFTANGWVQSYGSRCVKPPIIYGDVSRPNAMTVFWSKMAQSMTSRPMKGMLTGPVTILNWSFVRNDQPRFETCYQIALAIKKEVEDLEAGGIQVIQIDEAALREGLPLRKAEHAFYLDWAVHSFRITNCGVQDTTQIHTHMCYSNFNDIIHSIINMDADVITIENSRSDEKLLSVFREGVKYGAGIGPGVYDIHSPRIPSTEEIADRINKMLAVLDTNILWVNPDCGLKTRKYTEVKPALTNMVLAAKLIRTQLASAK | soluble
SASHQEQSYKAGETRGKAQEKTGEAMGTMGDKTQAAKDKTQETAQSAQQKAHETAQSAKDKTSQAAQTTQERAQESKDKTGSYMSETGEAIKNKAHDAAEYTKETAEAGKEKTSGILGQTGEQVKQMAMGATDAVKHTLGLRTDEGNKEHVSSAPSTTTTTTTRETQRK | soluble
SASLDRVKVLVLGDSGVGKSSLVHLLCQNQVLGNPSWTVGCSVDVRVHDYKEGTPEEKTCYIELWDVGGSVGSASSVKSTRAVFYNSVNGIIFVHDLTNKKSSQNLRRWSLEALNRDLVPTGVLVTNGDYDQEQFADNQIPLLVIGTKLDQIHETKRHEVLTTTAFLAEDFNPEEINLDCTNPRYLAAGSSNAVKLSRFFDKVIEKRYFLREGNQIPGFPDRKRFGAGTLKSLHYD | soluble
SAVKAQVLYDFTAEPGNNELTVHEGETLTITNQNVGGGWVEAQNSRGNVGLVPVDYVEVNSASAQAPATQYIDARNQGNNNSTANTQGVNGNEAWTATTWSNSYPADNWNYTEQEPAGNNGSVYSFDEEWDDDSDDGKSTGGYGGSQAEDGGTMQRSGAHSTMKLSLNKFPGFSKTPNPEVYLLTKHITKGNDRLSVYPGEVGPVWLYPQTQLDCVVADPKKGSKMYGLKSYIEYQITPNTTNRPVNHRYKHFDWLYERLVEKFACALPVPGLPDKQVTGRFEEEFIKMRMERLQGWMSRMCRHPVISNSEVFQLFLNYRDEKEWKLGKRKAEKDETVGVKIFSTIDPELPELDPAQVEQKYEVYNQFTRSMDNSVKELLAVGNLHWKRCTGPLQKEYRQIGKAFQNMSSVFNTSGYPRESTLTEALTATGKTYEEIAEVIAAQPRKDLHFLLETNNEYKGLLGCFPDTIGVHKAAIDKVKEADHLVMTNKISQQDKHTMEKNLSTMSYALQAEMNHFHSNRIYDYNRLMQFYLEEQVKFYETIAEKLKKALGQYTTI | soluble
SDFVNNLDTDTSLSILSCLDDPSDIVRASAVSRSWRQFVVKYSLSKNLCLKLFHQLSNVDHIIETSNDRNGESSEAGSSSLMDTRLLEKEHRAFALLARGCMSSPIESCIADAIRASSTDNYPVESILNTLEKRDRIGRTPSYWSSTGQHKTTVPESLLYKLIGDLCLITEVSIHPFQAYFQRGHPIYSSHYVRFRLGHEKDNSPHYNNSQDKKGEPGKSSIESNYVWTYTSQEFSMAQENRLQSFQLPEPVLCIGGYLLVEFLGRVQTQEMDGQYYICVSHVKVEGRSLAKSFRVENVDDNGKFGLKVLSYNDPKKMEEMDAEAGQDMDAEAGQSQLRNLEQLLNLLHRHPLDVVDYVWPDESDDEYAESEDEAEP | soluble
SDIAIHHPWIRRPFFPFHSPSRLFDQFFGEHLLESDLFPTSTSLSPFYLRPPSFLRAPSWFDTGLSEMRLEKDRFSVNLDVKHFSPEELKVKVLGDVIEVHGKHEERQDEHGFISREFHRKYRIPADVDPLTITSSLSSDGVLTVNGPRKQVSGPERTIPITREEKPAVTAAPKK | soluble
SDLQTRFRPPGAEISIIGLSASLAELVPPSNIENAPQIPRGEDGFFERVGNATREMLVYVGSVVRFIKECVLVFKLGINRRKNVNWTTVSNIATRAGADAVP | not soluble
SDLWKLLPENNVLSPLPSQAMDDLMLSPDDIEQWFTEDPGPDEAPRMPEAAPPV | soluble
SDPNKAEISRLEVLPQDLLGEIVAKIGAKYAEDYHNCILSCKELGASANDERVLKTLNLAPLVKKPLSCRKHLLIMKKCLANNNPDAHYIKGIIWYFNLDHCDVGLHHIGIAAN | soluble
SDSAWTALDMETQTMLKTAIKDPKTVDLEKLSNAVVEHSLKDLSFCKDAGRMCYAVVQAEAQKTASSVFRRNLLNRLQQEFIAREETRKRSMQEWVCVVTFICSIFDYIKVNNSPIAALVDPVYDCLFRLAQPDSLMNEEEVDCLVVQLHRVGEQLEQTNSERMNQLFYLLRDGFLLQEDLSSMTRLLLLEILEFRASGWTLSETAHKYYYSEVAD | soluble
SDSDSGEQSEGELSPGHESFNSKSLALQAQKKILSKMATMAVANLLTDDTSSEILDELYKASREYTKSKKEAHKIIKDVIKIALKIGILYRNHQFSPEEMETVERFKKKMNQAAMTVVSFYEVEYTFDRGILSELLLECRDLLHELVEHHLTMRSHGRIDHVFNHFADVDFLTELYGPSEDYRLNLRKICDGINKLLDEGTL | soluble
SEACVSVTSSILSSMDPTVDPCHDFFSYACGGWIKANPVPDGHSRWGTFSNLWEHNQAIIKHLLENSTASVSEAERKAQVYYRACMNETRIEELRAKPLMELIERLGGWNITGPWAKDNFQDTLQVVTAHYRTSPFFSVYVSADSKNSNSNVIQVDQSGLGLPSRDYYLNKTENEKVLTGYLNYMVQLGKLLGGGDEEAIRPQMQQILDFETALANITIPQEKRRDEELIYHKVTAAELQTLAPAINWLPFLNTIFYPVEINESEPIVVYDKEYLEQISTLINTTDRCLLNNYMIWNLVRKTSSFLDQRFQDADEKFMEVMYGTKKTSLPRWKFCVSDTENNLGFALGPMFVKATFAEDSKSIATEIILEIKKAFEESLSTLKWMDEETRKSAKEKADAIYNMIGYPNFIMDPKELDKVFNDYTAVPDLYFENAMRFFNFSWRVTADQLRKAPNRDQWSMTPPMVNAYYSPTKNEIVFPAGILQAPFYTRSSPKALNFGGIGVVVGHELTHAFDDQGREYDKDGNLRPWWKNSSVEAFKRQTECMVEQYSNYSVNGEPVNGRHTLGENIADNGGLKAAYRAYQNWVKKNGAEHSLPTLGLTNNQLFFLGFAQVWCSVRTPESSHEGLITDPHSPSRFRVIGSLSNSKEFSEHFRCPPGSPMNPPHKCEVW | soluble
SEADASVDMFSKVLEHQLLQTTKLVEEHLDSEIQKLDQMDEDELERLKEKRLQALRKAQQQKQEWLSKGHGEYREIPSERDFFQEVKESENVVCHFYRDSTFRCKILDRHLAILSKKHLETKFLKLNVEKAPFLCERLHIKVIPTLALLKDGKTQDYVVGFTDLGNTDDFTTETLEWRLGSSDILNYSGNLMEPPFQNQKKFGTNFTKLEKKTIRGKKYDSDSDDD | soluble
SEAIQTLLDRKLPDEELEQINQACLSVKGVLGVHQLRTRMSGPTRFIQLHLELDDNLRLIEAHYIADKVEDNLLALFPEADVLIHQDPLSVVFGPEKEQKAQDW | not soluble
SEEEDDEVMVREGLMASQREIFSISGPIHLTSIDWNNSYHRTSVASCLVQAVYTLERDRQQNRIGLKSQANHWWEFFNFTLAETLIDDSDGSIYGAVFEYKHFFSYNYHHTPHSKPPPRHVIAFRGTILKPHSRSRDLKLDLRCIRDSLHDSTRFVHAIQVIQSAVAKTGNAAVWLAGHSLGAAVALLAGKIMTRSGFPLESYLFNPPFSSIPIEKLVKSEKLKHGVRFAGSLVKAGVAIAVKGRHHNKGQEDDSFMKLASWIPYLYLNPLDTICSEYIGYFKHRNKMFEIGAGKIERIATRNSLRSLLSGGGGGGSSSDSSSEPLHLLPSAYMTINASKSPNFKRAHGIHQWWDPMFNGEYVLHQFNN | soluble
SEEGSNKREGYNDQKQQARAGCGKELAVEEMIAAVSERKKGCCPPPPPPHGAPATPARNRPQTQGRGAAAPVVGWPPIRSFRRNLASSSSSKHSPEPQNDNANAKVTLTCKKNPLVKINMDGIPIGRKIDLAAYNSYDGLSSAVKQLFHGFLQAQKDQTNAQIAQQGADDKIFYQLLDGSGEYTLVYEDSEGDRMLVGDVPWKVFVSTAKRLRVLRSSELSHTLIGATARV | soluble
SEETYTDSLDPEKLLQCPYDKNHQIRACRFPYHLIKCRKNHPDVASKLATCPFNARHQVPRAEISHHISSCDDRSCIEQDVVNQTRSLRQETLAESTWQCPPCDEDWDKDLWEQTSTPFAWGTTHYSDNNSPASNIVTEHKNNLASGMRVPKSLPYVLPWKNNGNAQ | soluble
SEILISAVATDLISRFISSVTQNYRNHIHKEDDRRRLERILLRMHSVVEEAGGRHITNQGMILQLKGLVEGFYLGYYMLDKIKFQPPEYEVSHEIQSFALSACNSAKRFRFADAISKRTPVAFGSRSRTNLKDVVDGLETKIADMREFVILLGSHPRLPRQPYSTYLYIDNCMFGRRIEKEQVINFLLCNDPHDPYVSILPIIGPQRIGKKTLVQHACLDERVRDCFSHIFFFKEDDLKTGELSLNSKASQGKYLFVIEFIWDVDEAAWTKFQSYLQNMPATGIKVVVIGRTEDIAKFGTSQPIRVKRLSEEEYWYYFKALAFGSMDPDEHPKLASLAMQLSTEMNGSFLGATMFGELLRANPNTQFWKRILLFLRELARKHLTSSGLHPEDLFERNIPVDLSRIAVVDGQVQDFMVYDVRVAGPAEGELPKLTSRDILLGGDIPVEDKFDVLVWRSRIPPYCNYIVTYEKQKPRRMVGKRNTIYL | soluble
SEISRQEFQRRRQALVEQMQPGSAALIFAAPEVTRSADSEYPYRQNSDFWYFTGFNEPEAVLVLIKSDDTHNHSVLFNRVRDLTAEIWFGRRLGQDAAPEKLGVDRALAFSEINQQLYQLLNGLDVVYHAQGEYAYADVIVNSALEKLRKGSRQNLTAPATMIDWRPVVHEMRLFKSPEEIAVLRRAGEITAMAHTRAMEKCRPGMFEYHLEGEIHHEFNRHGARYPSYNTIVGSGENGCILHYTENECEMRDGDLVLIDAGCEYKGYAGDITRTFPVNGKFTQAQREIYDIVLESLETSLRLYRPGTSILEVTGEVVRIMVSGLVKLGILKGDVDELIAQNAHRPFFMAGLSHWLGLDVHDVGVYGQDRSRILEPGMVLTVEPGLYIAPDAEVPEQYRGIGIRIEDDIVITETGNENLTASVVKKPEEIEALMVAARKQ | soluble
SENSDVINFSCLEKELHSALQADRKYQRENDAKFRALNQKVASYEEFRDIVLASHLKPLDRNDISGSPRKQPWNPVACRTNYVCASSEQVQPQLSEVQPRSASEFIRDWRRFAGCSFEKYSLLVSLGGEALQKIFSTEIGLGLLGEFLLILSQCLKSGDEDRVTGVLDGLSKTGRFSINLSLLSQAEQEACEELFNKLKVAAGECHPYKDNSNTSVVCEAGLTHMEDNKTDITTTLKELAGKYGTEK | soluble
